The values below come from a protein production outcome set (Wang et al. 2014).

The series can be described thus: label from the status in PepcDB records.

Regarding “MIIQIVLWDCYTVPYFCFEKRRFMEELKFEELELCPEILKAVKHMGFEEASPIQSKAIPVIMSGKDVIGQAQTGTGKTAAFGIPLLEKIDPKNKKLQAIVLCPTRELAIQVAEEIRNLAKYMHGIKVLPIYGGQEIVKQIRSLKSGTQLVIGTPGRVMDHMRRKTMKMDHVHTIVLDEADEMLNMGFREDIETILEGIPQEHQTVLFSATMPKAILEITKQFQTNAELVKVTKKELTVPNIEQFYYEVKPKNKEEVLSRLLDIYTPKLSVVFCNTKKQVDLLVNGLLGRGYFAAGLHGDMKQAQRDRVMQGFRSGKTDILVCTDVAARGIDVDDVEAVFNYDLPQDDEYYVHRIGRTGRAGRVGRSFSFVSGREVYKLKEIQRYCKTKIYAQKVPSLNDVANTKMENVLEEIEQIIENEDLTKFLQIIEERVNESDYTAMDLAAAFLKYCSGQQETEEKDMEFGDTGAEEAGMVRLFINIGKKNKAKPGDIVGAIAGESGIPGKLIGTIDMFDKYTFVEVPREYARDVLNAMNHTKIKGKSVAVEPANQK”, the protein production entry was “failed”.
As to “MIIRIKHYGEVKIEDSKNLLLNLIENRIGIDNICNGKGTCGKCKVRFRQGVPEATSADLRYLSVEELEEGVRLACQVKPQKGMEIDVTLSNSFDRKNTVLEHHHHHH”, the protein production entry was “failed”.
As for “MIISSLTNPNFKVGLPKVIAEVCDYLNTLDLNALENGRHDINDQIYMNVMEPETAEPSSKKAELHHEYLDVQVLIRGTENIEVGATYPNLSKYEDYNEADDYQLCADIDDKFTVTMKPKMFAVFYPYEPHKPCCVVNGKTEKIKKLVVKVPVKLI”, the protein production result is listed as “not failed”.
The result for “MIITVASFKGGVGKTTTAVHLSAYLALQGETLLIDGDPNRSATGWGKRGSLPFKVVDERQAAKYAPKYQNIVIDTQARPEDEDLEALADGCDLLVIPSTPDALALDALILTIETLQKLGNNRFRILLTIIPPYPSKDGDEARQLLTTAGLPLFKRGIKRYSAFQKASLNGVVVSEVSDSKAGIAWSDYKATGKEIVEEILILEHHHHHH” reads “not failed”; that for “MIIWQPDQKINNGRFIIQGKPLGEGGFGITYKALEPSTGKLYAIKTLNQQMQLLRSDFAEQQIKFINEALTIKGFDHPHILKVHEVIQEGELFGVVMEYIDGVTLFEYVQDKGQLSETEALLYVNQIGQALELIHQKQHLHRDIKPENILLRHTTRKAILIDFGLAREFTIDQTGSMTNAKTEGYAPPEQYERRGRFDAYVDVYALAATLYNLLTGKVPLPVNFRKAGIPLPPPKQFNSQISQRVNDAILKGMELEPQERTPTVLEFRKNLGLVSSGGAEVQLKSSVGMDYRQLRDLLAVGKWKEADAETARVMLAAMKREKEGWLREEDTWFFPCEDLRTIDQLWVKYSNGRFGFSVQKRIYQSLGGKRSYDEEIWRAFGDKVGWRKGGEWLYYKDITFDITAPEAHLPCYTLTIPYTSRGEVGYTDYSPGFGLWWWWGGGLFSRVETCKM”, “failed”.
Regarding “MIIYILINIAIVLLILGFDLYRHRFRQLKFSSILLSVLINSMIDIFAINQFNFITMFTVTLFMIWTLLQIYLNFKLYPFVISDQKFIAIILAIVISLLQFITDKSSTQSVYMSIPYLSPTIFIIGAILLFVGTFKIDEVERLSLFRKIKRPMTTGTIIIILSLISTMILTPFWYVFLIIYSLLIGFILWQGVFFIKDKK”, the protein production result was “failed”.
As for “MIKEARLNDYMGDEVWYVPATRNMLNMLGIRTHYIDNNSTGVNIFLKEPLYVGKVVINIYGIKIEKSVREYPKIPELVRKLGINIEYLPFNYTKNESYWENLKLKIWEIAERNGFLEYETYSKFPGVYYVIPVENYERFMKELSNFSDIVVVPGYKYPDEENIHKYLNTEHPFLGKDLIALGMLANDKPLYWRLPGIIEHALIVLIVAFVSYKIARSYLATLISATFVALDPLLFATGIVAMLDIHVAFFVALFMLFLTIRRLRISGISLGLAAATKLSGAFVFPILWAKILKEEDLKEFIISGVVLPVIAFLVPEIPIIKAIGFIPWLEEFMGSFSWHLSFKGEHPAEAPFWLWFISLKPFPFHFNPDVYAVTDPILMISMIAFIFAVPYVSLRRKGLGEIFWMFWSIIGFFALQYILGGKTQFIFYATPLVPPGAVALGVISYEIIKWEYFERSVKIYMNYLRSLKEFIKR”, the protein production entry is on record as “failed”.
For “MIKILGHHISTLSITLALYETLIFMCVLYSFIFIMSFFFNIPVPEKLSMVILLALTATIAAGSLGLYNQRLFGDFKEFIWRIALTLPLILLAVLFVSFAYGEITATDQSPFYLAAAFGIPAALLLVVLGRGICFRIPGIKAFRRRILVLGTGEMADRLAALETSQPYRHYEIIGFVALGDDPAPLGEKWRVFDRNCIETRHDLLKICADHNINEVIFAASERRRANSSTFGLPVWDLLECRLMGIHVAEYASFWERETGRIDLDHLRPGWLIFSEGFRNSSRRMIAKRFFDVITALLLVILSLPVLVAAAIAVKLSSPGPVFYRQERVGVNGKPFNLIKFRSMPIDAEKNGPVWGTVKDKRATGVGSLLRRTRIDEIPQVFNVLRGDMSFIGPRPERPVFVEELSRELDFYGERHAVRPGISGWAQINYPYGASVADAKQKLSYDLYYIKNGSLFLDIIILFQTFRVVLWPEGSKEKAGAVVR”, the protein production result is “failed”.
With “MIKKNNLILIKLKNSMKKMIKIAFVAAFVAIAGYGVYTNQKSETLSDLTLANVEALAGGESGGYYCCSPYSYECYRIVGGGIVHGLRLPLPC”, the protein production result is “failed”.
As for “MIKLIHNANIVLEDMILENGHLIIEGDTIKKVSNDKIDYAFDFNEIDEIIDAKNLYVIPGIIDIHSDAIEKEIEPRPSTLLPFNMAFYELDKKLPANGITTVYHSISLGDGVGVRSIDNSLKMIKNIDSYKNIDSKSINHKVHLRYEVLYYEGLEKVLELLDENKIDYLSIMDHSPGQGQYTNPTFYKEYATKVWGVTENYVDTWLDDLVNLHDNLDWNKIANIIGIAKTKNINVASHDDDTLEKMDFIKNIGINVSEFPITLEVAKHSKKLGVLTCLGAPNIVRGKSHNNNLKAMDAILEDCCDIVCSDYLPSAMIKSMCIVAERINNLNKAVSLFTSNPAKAVGIYDERGSIKENKKADLVLVDIDSEYPKVVNTIVNGKTVYKREV”, the protein production result is recorded as “failed”.
As to “MIKLIVSDLDETLVGPDGNVSEENIEAIKKATQKGVKFVPNTGRGFESVQPLLETLGLKGKANEFVISYNGGVIVENQNFDVIQANAFSFEQATQIFDITKQHLENSTHIYTLNDVYVFNEVEEDNEYIRSRGVRTIRFEHDNLDTLKDEPIFKIITMNPDFNKRKQIKAEVLDKVNFDVNATFSSDRYTEFNLKGVDKGQASLELGRHLGIKADEIMALGDNNNDVAMLKSVGLPVVVSNASASAKANAKYIAKGNYETGVAEAINKFVLGE”, the protein production entry is “failed”.
The result for “MIKLLKKINIKSIIELVKKDFKLKLISLSVGIVMWFLVIGGVNPVVTRQFTDVPVSFKNQSVLESRKLIRVSPENPTVTVTITGKRSDVYSVNKSDIVAEVNLQNGITSGAHRLSINYKVPYNVQFKSASDNDLLVTLDEEISKTYKVEVETIGQIKNKNQVVAKKEPADSEVVVKGPVSYVNKVKRVRCVVDVTNKDGDEVVQSKIVPVDELNKEVKKVSLSKTDTNVSIGFKNFKEVPIKLVEINSPPSDVRILKKDIVPNIISIVGNLTSLEQISQINTKPFDLSQIKESGSYNLNLELPSDVTLVNNDLKVVINIDVDKKIEKTLEIDTSNIEIENESGKDILLKGLQDKVKVTVRGYESDLAKLNAEDIRLYISVKKEDVGKNVQIKAKNIENIEIAKISNDIVQAIGK” reads “failed”; that for “MIKLLLLDVDGTLTDGSLYFDENFHEIKAFNVKDGLGMTLWQKLGKKIAIITGRTSIMVKKRMESLGVQFVFMGVENKNTVIERLKKDLQLSAQEIACVGDDYNDLGMFKACALSFAPFDAHPLLKSKAYKVLQNSGGKGAVREAIDYLLTLEGLQDEALKLYL”, “failed”; that for “MIKNDGKMMRVRIAKERSDLCDLTAAAIKATYNTRNPCEVERCIDVLNHLKSLSLSVKDIRLSESIVKLETLRSHRNPRIRKEAQALFHSWLKTFYAHGSDNSFTAALTKDRLKMKKHVLKMCSELKKKEEPGTMARQVTAFSVLKNKEDERSQTTVEAVESKTTIKLSELNRKEDQRSLTRETEKNKARNSFLALKQKEDHRSETCVEKYFKKETKTNLKQLNMKTRRVSLEDVTTKKPHEDGSLIKKTKTEKELKKKKVDEMVKLFEAAKKAADVANAKGVLSGKPEVSRCIDALSLLMKINITPKPKEPRRMMDKLEGLTKHKDRKICHVASALLHLWRQRIREQERKKSVTKASSKTRKLSYVKIIWLEQIKVSCGFKRF”, “failed”.
As to “MIKNNIKHTWYFGHPQQLVWDYLTKPELLSQWLMESDFQPVAGHTFMFNTKPKVKVGFDGLIYCQVLKVQPDHELEHHHHHH”, the protein production entry is given as “not failed”.
With “MIKQDVICYEKEDVVKRNNINITGGGEKTVLLAHGFGCDQNMWRFMLPELEKQFTVIVFDYVGSGQSDLESFSTKRYSSLEGYAKDVEEILVALDLVNVSIIGHSVSSIIAGIASTHVGDRISDITMICPSPCFMNFPPDYVGGFERDDLEELINLMDKNYIGWANYLAPLVMGASHSSELIGELSGSFCTTDPIVAKTFAKATFFSDYRSLLEDISTPALIFQSAKDSLASPEVGQYMAENIPNSQLELIQAEGHCLHMTDAGLITPLLIHFIQNNQTRA”, the protein production entry was “not failed”.
Turning to “MIKTSPPMNKLKLNIALSAFFFALVGCQSMPNDPVDIKADLDASIKETKRLNGPKALTQVPNSVQQELMLNNMDQAKQGMLAEKRLEVSATEVDAKDFFQAIVRGSRYNVVIHPDVTGQISLSLNNVTLSEALTVVEDVYGYEIIRRGNVVKVFPPGIRTETIALNYLFLKRFGSSSTTINSGGVSENDPNSGNSSNGNSSNSNNSNSGSNNNQSGNNGSSNQNSGINLYTENESNFWDELKESLTAFVGTGEGRSVIVSPQAGLVTVRALPQELTAVKKFITATESHLHRQVIIEAKIMEVTLNDDFQQGIKWNKVLDQVGSADIIYSTTGNVVGNVISNTIGGVNSINFSKQTSGSDFSGVIELLQTQGNVQVLSSPRITATNNQKAVIKVGEDEYFVTEVSSTTTTGTSTTTTPEVELTPFFSGIALDVTPQISKDGSVILHVHPSVTITEEQSKTIKIGDTTLVLPLAQSSVRESDTIIRANSGEVVVIGGLIETYNIDIESKTPILGDIPYLGELFKNKSQKSQKRELVIMLKPIVVGQDTWKNQLQDARSLLTKWFPEEVDACELSNDGTLTQECQAQCADAEYATEHGVCQMAAQNAASNDN”, the protein production entry is on record as “failed”.
As for “MIKVLDQNTINKIAAGEVIEKPSSVIKELVENSIDSGATAITVEVKGSGLSFLRVTDNGSGIKKDEVKLAFLRHATSKLVTVEDLLSISSLGFRGEALASIASVAQVEMITKTADDVTGLRYQIHGGREISSEEIGAPGGTTIIVRNLFYNTPARKKFMKTDLTEISYIYDLMCRICMSHPKISFKFISNGTDKLFTSGNGKLRDIIYHIYGRDITSNLLEINAENDYMKISGYIARPCISRGNRSFEGYYVNHRYIKSAVLTKAIEDAFRTFVMIHKFPFTEINFQVRPDLLDVNVHPTKMELKFANSQDIYSFTYNAIRETLLFKELIPDVAPGKDSKPETYKQRNVGDAPEAFENKRREALVGPVAQAKAAPTHMVTDNSLVKSENAPVLDQRQMKPERASTSESQARPEGTSTALQQPLKPDNIPAPVRPIIDVIDETKDTNTSAEKKSDNNTYEQPQKSGYSYSGRHQEIPGSKVAESKASYMAVDDRKYVQQNMFQEKFLTKEARAKHRLIGQLFKTYWLIEYDGKFFIMDQHAAHEKVKYEELMENYKNKKIYSQYLMPPAVVTLSATEIEFLHENMETFEALGYQIENFGGREFKLNAVPDNLFGLDGRELFIDFIADASSSAKKVTIDVFIHKLSTMACKAAIKGNTEISFKEADALIDQLLKLENPYTCPHGRPTVISMTEAEIEKKFKRIV”, the protein production entry is given as “failed”.
